The source of these data is patent US12280159B2, “Therapeutic protein-based nanoparticles for treating cancer” (THE REGENTS OF THE UNIVERSITY OF MICHIGAN, priority 2020, dated 2025).

Data set [1] relates to B16F10-OVA melanoma. The data set can be described thus: Therapeutic efficacy in murine B16F10-OVA melanoma model. Type of data set: in vivo, C57BL/6 mice. The settings on record: treated days 7 and 14 with CpG. The protocol:
Therapeutic efficacy of pNPs in a model of melanoma. Encouraged by the fact that OVA pNPs with 10% PEG/OVA ratio result in increased OT-I CD8+ cell proliferation in vitro, improved uptake by APCs (both in vitro and in vivo), and enhanced humoral immune response in vivo, a murine model of B16F10-OVA melanoma was employed to evaluate the therapeutic efficacy of pNPs with a PEG/OVA ratio of 10% compared to solute OVA. Tumor-bearing mice were treated with 10% PEG/OVA pNPs or solute OVA (10 μg OVA/100 μL dose), co-administered with CpG (15 μg/dose). Following the regimen shown in FIG. 9A, C57BL/6 mice (10 mice/treatment group) were inoculated with 1×10^5 B16F10-OVA cells in the SC flank on day 0. Treatments with either 10% PEG/OVA pNPs or solute OVA were initiated on day 7 after tumor inoculation. A second treatment was given on day 14. Mice were euthanized after their tumors reached 15 mm in any dimension. […] More than 50% of mice treated with solute OVA were euthanized due to large tumor burden on day 20, and 100% of the mice were euthanized on day 21.

The test system of data set [2] is draining lymph nodes (F4/80+ macrophages, B220+ B cells, CD11c+ DCs). Set-up: species or system C57BL/6 mice. Conditions: mouse, in vivo, sc. The procedure:
OVA pNPs delivery to lymph nodes. Next, the pNPs targeting of the draining lymph nodes using AlexaFluor 647-labeled pNPs was evaluated. OVA pNPs of varying PEG/OVA ratio (10, 30, 50%) and size (200 nm, 500 nm) were injected subcutaneously at the tail base of C57BL/6 mice (10 μg OVA/100 μL dose). The inguinal draining lymph nodes were harvested 48 hours after injection. Single-cell suspensions from the draining lymph nodes were prepared and pNPs uptake among the different populations of antigen-presenting cells were analyzed (dendritic cells, macrophages and B cells) using flow cytometry by comparing the MFI values of the cells. […] In the past, many different particle sizes have been studied with respect to their lymphatic drainage. It has been shown that particles exceeding 500 nm can be trapped at the injection site. Nanoparticles smaller than 10 nm, or soluble antigen, diffuse into the lymphatic system easily, but their retention time in the lymph nodes is too short to provide sustained antigen delivery. […] For smaller pNPs sizes, improved uptake is observed for pNP with lower PEG/OVA ratio.

B1: ovalbumin (protein, UniProt P01012 2-386, looked up)
Ovalbumin: GSIGAASMEFCFDVFKELKVHHANENIFYCPIAIMSALAMVYLGAKDSTRTQINKVVRFDKLPGFGDSIEAQCGTSVNVHSSLRDILNQITKPNDVYSFSLASRLYAEERYPILPEYLQCVKELYRGGLEPINFQTAADQARELINSWVESQTNGIIRNVLQPSSVDSQTAMVLVNAIVFKGLWEKAFKDEDTQAMPFRVTEQESKPVQMMYQIGLFRVASMASEKMKILELPFASGTMSMLVLLPDEVSGLEQLESIINFEKLTEWTSSNVMEERKIKVYLPRMKMEEKYNLTSVLMAMGITDVFSSSANLSGISSAESLKISQAVHAAHAEINEAGREVVGSAEAGVDAASVSEEFRADHPFLFCIKHIATNAVLFFGRCVSP
notes: soluble ovalbumin antigen used as control
In the case of B1, the “mice euthanized due to large tumor burden” value in data set [1] (day 20) is “More than 50%”. In data set [1] (day 21), this molecule displayed a mice euthanized of 100%. The animal survival entry in data set [1] is given as “slightly better survival”. The “MFI of lymph node cells / delivery to draining lymph nodes” value in data set [2] is recorded as “not delivered to the lymph nodes efficiently”.
